Reference: the supplement of paper PMC9170038

Tested on: MS2 coat protein
Test: apparent KD of MS2 coat protein; designed switch direction (-1 OFF switch, 1 ON switch): -1; higher = weaker reporter binding
Method in brief: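 The buffer was Tris-HCl pH 7.5 with KCl, MgCl2, BSA, DTT, tRNA and Tween-20. In it, SNAP-549-labelled MS2 coat protein was titrated in doubling steps from 0.7 or 1.5 nM to 3 µM over chip-bound RNA switches transcribed by stalled E. coli RNA polymerase on Illumina chips. Apparent KD is the per-design median over clusters of curve fits to normalised fluorescence.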

[1] = input ligand: microRNA oligo, concentration not stated
[2] = Eterna round: R95, input ligand: FMN 200 uM
[3] = Eterna round: R95, input ligand: microRNA oligo, concentration not stated
[4] = Eterna round: R95, input ligand: none

Row | Sequence | apparent KD of MS2 coat protein (input ligand: FMN 200 uM) [nM] | apparent KD of MS2 coat protein (input ligand: none) [nM] | apparent KD of MS2 coat protein [3] [nM] | also measured
1 | UUCGUGCAGCUUUGCUGUACGCGUACAUGAGGAUCACCCAUGUAGGAUAUGGUAGGCAAAGCUUACUAGAAGGAUAUAGUGAUC [Mat - Exclusion NG 3 - Mod of JL - D78] (Eterna round: R96, puzzle: Exclusion NG 3) | 66.7 | 64.5 |  | apparent KD of MS2 coat protein [1]: 41.7 nM
2 | AAGAAGUGAGGAUAUGCAAAGAAAGAAAGAAAGAAAGAAAAGCAGAAGGCACAUGAGGAUCACCCAUGUAAAGA [Fourth Time] (puzzle: Exclusion 4) |  |  | 16.5 | apparent KD of MS2 coat protein [2]: 20.5 nM; apparent KD of MS2 coat protein [4]: 15.6 nM
3 | UGUCAGAUGGUAGGAUAUCCAUAUCGAGUGACCCUUUCAUAACAUGAGGAUCACCCAUGUCGGUGGGAGAAGGGCUGUAUGGUG [salish99_ExNG02_R04_025] (Eterna round: R96, puzzle: Exclusion NG 2) | 26.8 | 24.6 |  | apparent KD of MS2 coat protein [1]: 19.1 nM
4 | UGAGAGUCAGGAUAUCGAAGGUAGUGGAGAGGAGUGUGGUACGAGAAGGGACAUGAGGAUCACCCAUGUAGGUG [JR_Exclusion4)Sub009] (puzzle: Exclusion 4) |  |  | 420 | 
5 | CCUUUGUCAGGAUAUCAGUACAGGUCGAGUUUAGACCUGUUUGAGAAGGGACAUGAGGAUCACCCAUGUAAAAC [Inzaerle] (puzzle: Exclusion 4) |  |  | 78 | 
6 | AUUUAUGUUGAGGAUAUGCGAAUAAGUAUAGUUGCAGAAGGCGACACAUGAGGAUCACCCAUGUUCAUGGACCC [LRO-Ex6-02] (puzzle: Exclusion 6) |  |  | 81.5 | apparent KD of MS2 coat protein [2]: 181 nM; apparent KD of MS2 coat protein [4]: 127 nM
7 | UAACUUCUUGUAAGGAUAUCGGUCCCAAGGGACAACGAGAAGGUACAUGAGGAUCACCCAUGUGAAAUAAGAAU [Zala] (puzzle: Brourd's mod of Exclusion 4) |  |  | 22.7 | apparent KD of MS2 coat protein [2]: 66.6 nM; apparent KD of MS2 coat protein [4]: 19.8 nM
8 | GCCAGUGCAGGAUAUUCAAUAAUUCACAUGAGGAUCACCCAUGUCCAGCGAAAGCUGGAAGGAGAAGGGCACUGGC [Mat - Exclusion 5 - Eli mod - D85] (puzzle: Exclusion 5) |  |  | 12.8 | apparent KD of MS2 coat protein [2]: 10.2 nM; apparent KD of MS2 coat protein [4]: 14.6 nM
9 | AACGUCUAGGUAGGAUAUCCACCAACAGGUGGAAGGAUAUGUACGCAGAAGGUUCGCCAACAGGCGGAGAAGGACCUACGCGUA [pwkr exNG2 2xF7 2xFMN.30] (Eterna round: R96, puzzle: Exclusion NG 2) | 274 | 340 |  | apparent KD of MS2 coat protein [1]: 57.6 nM
10 | GCACAUGCAGGAUAUGUAAAAUUUGACAUGAGGAUCACCCAUGUAGAUCCUGAAUUUCCUGCAGAAGGGCAUGUGC [Mat - Exclusion 5 - Eli Mod - D17] (Eterna round: R97, puzzle: Exclusion 5) | 345 | 98.8 |  | 
11 | CUUGCAUUGCGAGGAUAUCCAACGUGGCUCGUGCUUACAUGAGGAUCACCCAUGUUCUACUAAAAGGAGAAGGCGCUUGGAGGA [Endixexebe] (Eterna round: R96, puzzle: Exclusion NG 2) | 48.8 | 25.5 |  | apparent KD of MS2 coat protein [1]: 16.8 nM
12 | CUUUUGUGAGGAUAUUAGUAGUAUAUAAAUAAAAUUACUACUGAGAAGGCACAUGAGGAUCACCCAUGUUCCUC [salish99_ex4_r3_052] (puzzle: Exclusion 4) |  |  | 30.4 | 
13 | UGUGUACGAGGAUAUAGAUGGAAUGACAUGAGGAUCACCCAUGUGAUCGAUCUAUUGGGUUUAGAAGGUGUAUAUA [JR_Ex5_Sub047] (Eterna round: R97, puzzle: Exclusion 5) | 27.7 | 34.4 |  | 
14 | CGUGCGUAUGUGAGGAUAUGCUGGUCCUUGGCUCGGCAGAAGGCACAUGAGGAUCACCCAUGUGGUGUCGUACU [salish99_Bmod_ex4_069] (Eterna round: R96, puzzle: Brourd's mod of Exclusion 4) | 291 | 67.5 |  | apparent KD of MS2 coat protein [1]: 61.1 nM
15 | AGCCUAGCAGGAUAUGCUCGGGAUUACAUGAGGAUCACCCAUGUGACUGAUUGUUGUCUUGCAGAAGGGCUAGGGA [JL-EX5-4.04 ViennaUCT mod] (Eterna round: R97, puzzle: Exclusion 5) | 365 | 49 |  | 
16 | GGUUGGCGAGGAUAUACAUGAGGAUCACCCAUGUGAGAGAAAAAAGUGAGGAAGAAAAGUAGAAGGCGCUGACU [salish99_ex3_r3_047] (puzzle: Exclusion 3) |  |  | 53.2 | apparent KD of MS2 coat protein [2]: 221 nM; apparent KD of MS2 coat protein [4]: 50.1 nM
17 | GGUGCGUAUGUGAGGAUAUGCUGGUCCUUGGAUCCGCAGAAGGCACAUGAGGAUCACCCAUGUGGUGUCGUACC [salish99_Bmod_Ex4_022] (puzzle: Brourd's mod of Exclusion 4) |  |  | 139 | 
18 | UUCCUACAUGAGGAUCACCCAUGUCAGGAUAUAUAAAACGCUCUGGUAAUAGAGCAAGAUAGAAGGGAUUGGGA [Beeratve] (Eterna round: R97, puzzle: Exclusion 1) | 14.6 | 13.3 |  | 

Row | Sequence | apparent KD of MS2 coat protein (input ligand: FMN 200 uM) [nM] | apparent KD of MS2 coat protein (input ligand: none) [nM] | apparent KD of MS2 coat protein [3] [nM] | also measured
19 | UCCUCACAUGAGGAUCACCCAUGUCAGGAUAUAAGAAACGCGGAAGGCAGCCGCAAAAUUAGAAGGGACAUUAA [EX1 A.25] (Eterna round: R97, puzzle: Exclusion 1) | 39.7 | 20.6 |  | 
20 | GAAUGAGAGCAGGAUAUCUUAUAAAUAUAUGAAAGAGAAGGGCUCACAUGAGGAUCACCCAUGUGGUCCUAGAU [jl-ex6-4.75 jandersonlee mod] (Eterna round: R97, puzzle: Exclusion 6) | 443 | 42.9 |  | 
21 | GUUUUCAGACGGAGAUCCUACAUGAGGAUCACCCAUGUCUCUCUUGCUAAUUGCUCGUCUUUUUCUCCUCUGUUCUC [Elimod 36 - Jieux - Sensor, turn-off variant 1] (Eterna round: R97, puzzle: Sensor, turn-off variant 1) | 81.2 | 95.8 |  | 
22 | GAAAAGUAAGGAUAUGUCUCCAGUGAGGAAACUCACUGGAGACAGAAGGUACAUGAGGAUCACCCAUGUUCCUC [ExDelusion 5 - Jieux - Exclusion 4] (Eterna round: R97, puzzle: Exclusion 4) | 289 | 42.7 |  | 
23 | GUGUAGUCAGGAUAUACAUAGGAAGAUAAGAUAAGAUAAGCACAUGAGGAUCACCCAUGUAGAAGGGACAGUGU [Excluse me!! 1 - Jieux - Exclusion 2] (puzzle: Exclusion 2) |  |  | 74.2 | apparent KD of MS2 coat protein [2]: 159 nM; apparent KD of MS2 coat protein [4]: 122 nM
24 | UAUGGUUAAGUCAGGAUAUACGUACAGAUAUCUGAGUAGAAGGGACAUGAGGAUCACCCAUGUAUGGUAGUGUU [Ex4 #53] (Eterna round: R97, puzzle: Brourd's mod of Exclusion 4) | 187 | 64.8 |  | 
25 | UCCUGACAUGAGGAUCACCCAUGUUAGGAUAUAACAUUUGACGCGACAGUGUGGAGUGUUAGAAGGGAUGUGGG [-29.5, -26.8 kcal, A 27%] (Eterna round: R97, puzzle: Exclusion 1) | 20.5 | 17.4 |  | 
26 | GAGCUAUGAGGAUAUGCAUAUAUACGGAUUCGUGUAGUACUACAUGAGGAUCACCCAUGUAGAAGGCGUGGCAG [Mat - Exclusion 2 - Mod of JL - D77] (puzzle: Exclusion 2) |  |  | 12.1 | 
27 | GACUUGUCAGGAUAUCUUACAUAAACAUCGUAGUUACAAUUGGAGAAGGGACAUGAGGAUCACCCAUGUUUGCC [tap-tap-tappy30] (Eterna round: R97, puzzle: Exclusion 4) | 16.8 | 17.5 |  | 
28 | GUUCUGACAGGAUAUACAUGAGGAUCACCCAUGUGCCCUUGGAGAUGCAAAGCAUCUCGUAGAAGGGUCUGAAC [Omei Ex3 Model Bachelor's Dilema v29] (Eterna round: R97, puzzle: Exclusion 3) | 34 | 37.2 |  | 
29 | AACAUGUCAGGAUAUGUGACAUGGCUCUUCGGAGCAAGAUCACAGAAGGGACAUGAGGAUCACCCAUGUCGAUC [Ex4-3: 28] (puzzle: Exclusion 4) |  |  | 32.7 | 
30 | CGUUCGCGAGGAUAUGCAUUCGAGUCCACUACGUGUCUGGGACUUGAGGAUCACCCAAGUAGAAGGCGCCUAAA [salish99_ex2_r4_652] (Eterna round: R97, puzzle: Exclusion 2) | 514 | 577 |  | 
31 | CAUGAUCUUCGGAUCAUGUACAUGAGGAUCACCCAUGUGACGAGUUGAUCCUCAAACAAGCUUUUUGCUCGUCUUAU [Sensor v3 - Turn-off variant 1 - 18] (puzzle: Sensor v3, turn-off variant 1) |  |  | 10.6 | apparent KD of MS2 coat protein [2]: 17 nM; apparent KD of MS2 coat protein [4]: 17.5 nM
32 | UUUUAACAUGAGGAUCACCCAUGUGAGGAUAUCGAAAUUUAUAUUUAUAUUUAUAAUUCGAGAAGGCACAUUUU [JMF 93] (puzzle: Exclusion 1) |  |  | 181 | 
33 | UGCCUACAUGAGGAUCACCCAUGUGAGGAUAUCCUGCGAGGAUCAAAAGAUCCUCGUGGGAGAAGGCACAUGAA [Omei Ex1 B1] (Eterna round: R97, puzzle: Exclusion 1) | 146 | 38.5 |  | 
34 | AUGUACCGGUGAGGAUAUUUUUAAUAGAACUUUAUGAUAUACAUGAGGAUCACCCAUGUUACUUUAAAGAAGGCAUCGGAUUAA [Mat - Exclusion NG 2 - Mod of JL - D85] (Eterna round: R96, puzzle: Exclusion NG 2) |  |  |  | apparent KD of MS2 coat protein [1]: 13.8 nM
35 | GAUAAGCUAGGAUAUACAUAUUAUUUAAUAUCCUCAUUAAUACAUGAGGAUCACCCAUGUAGAAGGAGCAAUAG [Mat - Exclusion 2 - Mod of Hog - D90] (puzzle: Exclusion 2) |  |  | 108 | 
